Results as given in paper PMC2583105 (The EMBO Journal, 2008).
Residues, ends and D or L forms follow the SMILES beside them.

Assays:
[1] = biological target: LatB-bound G-actin (rabbit skeletal muscle actin) (Oryctolagus cuniculus, UniProt P68135); assay: Fluorescence anisotropy assay of RPEL^MAL:G-actin interaction; format: binding; conditions: ratio of Kd values from fluorescence anisotropy
[2] = biological target: FITC-conjugated 'RPEL2-like' RPEL3^MAL peptide, G171/P172 replaced by E and R (mouse); assay: fluorescence polarisation
[3] = biological target: FITC-conjugated RPEL1^MAL peptide, E86A (mouse); assay: fluorescence polarisation
[4] = biological target: FITC-conjugated RPEL1^MAL peptide, MAL(67–98), wild type (mouse); assay: fluorescence polarisation
[5] = biological target: FITC-conjugated RPEL1^MAL peptide, R81 and R82 both to alanine (mouse); assay: fluorescence polarisation
[6] = biological target: FITC-conjugated RPEL1^MAL peptide, R81A (mouse); assay: fluorescence polarisation
[7] = biological target: FITC-conjugated RPEL1^MAL peptide, alanine at R82 (the position of the conserved RPEL proline) (mouse); assay: fluorescence polarisation
[8] = biological target: FITC-conjugated RPEL1^MAL peptide, α2^AAA mutant (mouse); assay: fluorescence polarisation
[9] = biological target: FITC-conjugated RPEL2^MAL peptide, E130A (mouse); assay: fluorescence polarisation
[10] = biological target: FITC-conjugated RPEL2^MAL peptide, MAL(111–142), wild type (mouse); assay: fluorescence polarisation
[11] = biological target: FITC-conjugated RPEL2^MAL peptide, P126 replaced with arginine (mouse); assay: fluorescence polarisation
[12] = biological target: FITC-conjugated RPEL2^MAL peptide, P126A (mouse); assay: fluorescence polarisation
[13] = biological target: FITC-conjugated RPEL3^MAL peptide, MAL(155–186), wild type (mouse); assay: fluorescence polarisation

Compound	Fold reduction of actin-binding affinity relative to the wild-type peptide [1] [fold]	Kd [2] [µM]	Kd [3] [µM]	Kd [4] [µM]	Kd [5] [µM]	Kd [6] [µM]	Kd [7] [µM]	Kd [8] [µM]	Kd [9] [µM]	Kd [10] [µM]	Kd [11] [µM]	Kd [12] [µM]	Kd [13] [µM]
CC[C@H](C)[C@H](NC(=O)CNC(=O)[C@H](CCC(N)=O)NC(=O)[C@H](CO)NC(=O)[C@@H](NC(=O)[C@H](CC(C)C)NC(=O)[C@H](CCC(=O)O)NC(=O)[C@H](CCC(=O)O)NC(=O)[C@H](CCCNC(=N)N)NC(=O)[C@@H](NC(=O)[C@H](C)NC(=O)[C@H](CCCNC(=N)N)NC(=O)[C@H](CCC(N)=O)NC(=O)[C@H](CCC(N)=O)NC(=O)[C@H](CC(C)C)NC(=O)[C@H](CCCCN)NC(=O)[C@H](CC(C)C)NC(=O)[C@H](CCC(N)=O)NC(=O)[C@H](CC(C)C)NC(=O)[C@@H](NC(=O)[C@H](CC(N)=O)NC(=O)[C@H](CCCCN)NC(=O)[C@H](CCCNC(=N)N)NC(=O)[C@H](CCC(=O)O)NC(=O)[C@H](CO)NC(=O)[C@H](CC(C)C)NC(=S)Nc1ccc2c(c1)C(=O)OC21c2ccc(O)cc2Oc2cc(O)ccc21)C(C)C)[C@@H](C)O)C(C)C)C(=O)N[C@@H](CCSC)C(=O)N1CCC[C@H]1C(=O)N1CCC[C@H]1C(=O)N[C@@H](CC(C)C)C(=O)N[C@@H](CCCCN)C(=O)N[C@@H](CO)C(=O)O [RPEL1 R82A] (HELM PEPTIDE1{[O=C1OC2(c3ccc(O)cc3Oc3cc(O)ccc32)c2ccc(NC(=S)[*:2])cc21].L.S.E.R.K.N.V.L.Q.L.K.L.Q.Q.R.A.T.R.E.E.L.V.S.Q.G.I.M.P.P.L.K.S}$$$$V2.0; C-terminus assumed)	3.5	–	–	–	–	–	–	–	–	–	–	–	–
CC[C@H](C)[C@H](NC(=O)[C@H](CCCCN)NC(=O)[C@H](CCCNC(=N)N)NC(=O)[C@H](CCCCN)NC(=O)[C@H](CC(C)C)NC(=O)[C@H](Cc1ccc(O)cc1)NC(=O)[C@H](CC(=O)O)NC(=O)[C@H](CCC(=O)O)NC(=O)[C@@H](NC(=O)[C@H](CCCNC(=N)N)NC(=O)[C@H](C)NC(=O)[C@H](CCCNC(=N)N)NC(=S)Nc1ccc2c(c1)C(=O)OC21c2ccc(O)cc2Oc2cc(O)ccc21)[C@@H](C)O)C(=O)N[C@@H](CCCNC(=N)N)C(=O)N[C@@H](CO)C(=O)N[C@@H](CCCNC(=N)N)C(=O)N[C@@H](C)C(=O)N[C@@H](CCC(=O)O)C(=O)N[C@@H](CCCNC(=N)N)C(=O)N[C@@H](C)C(=O)N[C@@H](CCC(=O)O)C(=O)N[C@@H](CC(C)C)C(=O)N[C@H](C(=O)N[C@@H](CCCNC(=N)N)C(=O)N[C@@H](CCSC)C(=O)N[C@@H](Cc1c[nH]cn1)C(=O)N[C@H](C(=O)N[C@@H](CC(C)C)C(=O)N[C@@H](CCC(=O)O)C(=O)N[C@@H](CCC(=O)O)C(=O)N[C@H](C(=O)N[C@@H](CO)C(=O)N[C@@H](C)C(=O)O)[C@@H](C)O)[C@@H](C)CC)C(C)C [RPEL2 P126A] (HELM PEPTIDE1{[O=C1OC2(c3ccc(O)cc3Oc3cc(O)ccc32)c2ccc(NC(=S)[*:2])cc21].R.A.R.T.E.D.Y.L.K.R.K.I.R.S.R.A.E.R.A.E.L.V.R.M.H.I.L.E.E.T.S.A}$$$$V2.0; C-terminus assumed)	16	–	–	–	–	–	–	–	–	–	–	–	–
rabbit skeletal muscle G-actin bound to latrunculin B (LatB) and ATP (from UniProt P68135 1-377) (natural protein)	–	4.8	2.7	1	44.5	17.7	3.7	24	1.9	1.9	19.5	30.8	28.9
